This is an account of results in the supplement of paper PMC5998384.

For data set [1], the system named is HeLa Kyoto. Put plainly: thermal stability score vs G1/S (z-score of summed log2 fold changes over temperatures); higher = more thermally stable than in G1/S.
Data set [2] deals with HeLa Kyoto. Put plainly: solubility in G1/S (NP-40 vs SDS abundance) (log2 ratio); higher = more soluble. As to conditions: cell cycle stage: G1/S.
The test system of data set [3] is HeLa Kyoto. Put plainly: melting temperature (median over replicates), in situ; higher = more thermally stable.
In data set [4] the test system is HeLa Kyoto. The data set is described as follows: solubility change mitosis vs G1/S (difference of NP-40 vs SDS log2 ratios) (log2 ratio difference); higher = more soluble in mitosis.
Where [5] appears, read: cell cycle stage: early G1 (4.5 h after nocodazole release).
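Throughout, for melting temperature (median over replicates), in situ: HeLa Kyoto cells synchronized by double thymidine or nocodazole block, proteins quantified by TMT10plex mass spectrometry, three independent biological replicates.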
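Throughout, for solubility change mitosis vs G1/S (difference of NP-40 vs SDS log2 ratios): synchronized HeLa Kyoto cells (double thymidine block for G1/S, nocodazole release for mitosis), protein amounts in NP-40 versus SDS lysates quantified by mass spectrometry, three biological replicates.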
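Throughout, for solubility in G1/S (NP-40 vs SDS abundance): HeLa Kyoto cells arrested at G1/S by double thymidine block, proteins quantified by TMT10plex mass spectrometry in mild NP-40 versus SDS extracts, three biological replicates.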
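Throughout, for thermal stability score vs G1/S (z-score of summed log2 fold changes over temperatures): synchronized HeLa Kyoto cells, proteins quantified by TMT10plex mass spectrometry, three biological replicates, mitosis taken 0.5 h after nocodazole release, G1/S directly after double thymidine block.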

Consider SRRM2, for which the thermal stability score with HeLa Kyoto [1] (setting [5]) was -1.58; with HeLa Kyoto [1] (cell cycle stage: mitosis), 5.67. Also, the “solubility in G1/S (log2)” value with HeLa Kyoto [2] is -0.81. Besides, the melting temperature came to 48.3 °C in the data set with HeLa Kyoto [3] (cell cycle stage: G1/S) and 50.2 °C in the data set on HeLa Kyoto [3] (cell cycle stage: mitosis). For the same substance, the “solubility change mitosis (log2)” value with HeLa Kyoto [4] was determined as 0.682.
As to “MNWELLLWLLVLCALLLLLVQLLRFLRADGDLTLLWAEWQGRRPEWELTDMVVWVTGASSGIGEELAYQLSKLGVSLVLSARRVHELERVKRRCLENGNLKEKDILVLPLDLTDTGSHEAATKAVLQEFGRIDILVNNGGMSQRSLCMDTSLDVYRKLIELNYLGTVSLTKCVLPHMIERKQGKIVTVNSILGIISVPLSIGYCASKHALRGFFNGLRTELATYPGIIVSNICPGPVQSNIVENSLAGEVTKTIGNNGDQSHKMTTSRCVRLMLISMANDLKEVWISEQPFLLVTYLWQYMPTWAWWITNKMGKKRIENFKSGVDADSSYFKIFKTKHD [DHRS7]”, the thermal stability score in the data set on HeLa Kyoto [1] (setting [5]) was -1.54; in the data set on HeLa Kyoto [1] (cell cycle stage: mitosis) it was -1.34. Further, the “solubility in G1/S (log2)” value in the data set with HeLa Kyoto [2] is -0.297. The melting temperature in the data set with HeLa Kyoto [3] (cell cycle stage: G1/S) and in the data set on HeLa Kyoto [3] (cell cycle stage: mitosis) was 56.6 °C in each case. For the same substance, in the data set on HeLa Kyoto [4], the “solubility change mitosis (log2)” value is -0.0912.
Regarding “MEPAEQPSELVSAEGRNRKAVLCQRCGSRVLQPGTALFSRRQLFLPSMRKKPALSDGSNPDGDLLQEHWLVEDMFIFENVGFTKDVGNIKFLVCADCEIGPIGWHCLDDKNSFYVALERVSHE [RABIF]”, the thermal stability score amounted to 0.827 in the data set on HeLa Kyoto [1] (setting [5]) and 0.411 with HeLa Kyoto [1] (cell cycle stage: mitosis). Further, in the data set on HeLa Kyoto [2], the “solubility in G1/S (log2)” value was 0.225. The melting temperature in the data set on HeLa Kyoto [3] (cell cycle stage: G1/S) was 52.2 °C; in the data set on HeLa Kyoto [3] (cell cycle stage: mitosis), 51.7 °C. In addition, the “solubility change mitosis (log2)” value with HeLa Kyoto [4] was -0.0782.
Take “MAGASELGTGPGAAGGDGDDSLYPIAVLIDELRNEDVQLRLNSIKKLSTIALALGVERTRSELLPFLTDTIYDEDEVLLALAEQLGNFTGLVGGPDFAHCLLPPLENLATVEETVVRDKAVESLRQISQEHTPVALEAYFVPLVKRLASGDWFTSRTSACGLFSVCYPRASNAVKAEIRQQFRSLCSDDTPMVRRAAASKLGEFAKVLELDSVKSEIVPLFTSLASDEQDSVRLLAVEACVSIAQLLSQDDLETLVMPTLRQAAEDKSWRVRYMVADRFSELQKAMGPKITLNDLIPAFQNLLKDCEAEVRAAAAHKVKELGENLPIEDRETIIMNQILPYIKELVSDTNQHVKSALASVIMGLSTILGKENTIEHLLPLFLAQLKDECPDVRLNIISNLDCVNEVIGIRQLSQSLLPAIVELAEDAKWRVRLAIIEYMPLLAGQLGVEFFDEKLNSLCMAWLVDHVYAIREAATNNLMKLVQKFGTEWAQNTIVPKVLVMANDPNYLHRMTTLFCINALSEACGQEITTKQMLPIVLKMAGDQVANVRFNVAKSLQKIGPILDTNALQGEVKPVLQKLGQDEDMDVKYFAQEAISVLALA [PPP2R1B]”: the thermal stability score stood at 1.92 with HeLa Kyoto [1] (setting [5]) and 2.96 in the data set with HeLa Kyoto [1] (cell cycle stage: mitosis). Further, in the data set on HeLa Kyoto [2], the “solubility in G1/S (log2)” value was found to be 0.391. Further, the melting temperature is 49.2 °C in the data set with HeLa Kyoto [3] (cell cycle stage: G1/S) and 49.6 °C with HeLa Kyoto [3] (cell cycle stage: mitosis). Also, the “solubility change mitosis (log2)” value with HeLa Kyoto [4] was -0.0603.
In the case of “MDGGDDGNLIIKKRFVSEAELDERRKRRQEEWEKVRKPEDPEECPEEVYDPRSLYERLQEQKDRKQQEYEEQFKFKNMVRGLDEDETNFLDEVSRQQELIEKQRREEELKELKEYRNNLKKVGISQENKKEVEKKLTVKPIETKNKFSQAKLLAGAVKHKSSESGNSVKRLKPDPEPDDKNQEPSSCKSLGNTSLSGPSIHCPSAAVCIGILPGLGAYSGSSDSESSSDSEGTINATGKIVSSIFRTNTFLEAP [FAM192A]”, the thermal stability score in the data set on HeLa Kyoto [1] (setting [5]) was -1.68; in the data set with HeLa Kyoto [1] (cell cycle stage: mitosis) it was -2.27. Further, the “solubility in G1/S (log2)” value in the data set on HeLa Kyoto [2] amounted to 0.194. The melting temperature in the data set with HeLa Kyoto [3] (cell cycle stage: G1/S) amounted to 57.6 °C. Further, the “solubility change mitosis (log2)” value with HeLa Kyoto [4] is -0.000768.
Turning to “MSALLRLLRTGAPAAACLRLGTSAGTGSRRAMALYHTEERGQPCSQNYRLFFKNVTGHYISPFHDIPLKVNSKEENGIPMKKARNDEYENLFNMIVEIPRWTNAKMEIATKEPMNPIKQYVKDGKLRYVANIFPYKGYIWNYGTLPQTWEDPHEKDKSTNCFGDNDPIDVCEIGSKILSCGEVIHVKILGILALIDEGETDWKLIAINANDPEASKFHDIDDVKKFKPGYLEATLNWFRLYKVPDGKPENQFAFNGEFKNKAFALEVIKSTHQCWKALLMKKCNGGAINCTNVQISDSPFRCTQEEARSLVESVSSSPNKESNEEEQVWHFLGK [PPA2]”, the thermal stability score in the data set with HeLa Kyoto [1] (setting [5]) is -1.33; with HeLa Kyoto [1] (cell cycle stage: mitosis), -2. Besides, the “solubility in G1/S (log2)” value with HeLa Kyoto [2] came to 0.442. The melting temperature is 54.8 °C in the data set with HeLa Kyoto [3] (cell cycle stage: G1/S) and 55.1 °C with HeLa Kyoto [3] (cell cycle stage: mitosis). Moreover, in the data set with HeLa Kyoto [4], the “solubility change mitosis (log2)” value worked out at 0.0395.
